Source: the supplement of paper PMC5998384

Tests used:
HeLa Kyoto [1] = assay: solubility in G1/S (NP-40 vs SDS abundance) (log2 ratio); higher = more soluble; conditions: cell cycle stage: G1/S
HeLa Kyoto [2] = assay: melting temperature (median over replicates), in situ; higher = more thermally stable
HeLa Kyoto [3] = assay: solubility change mitosis vs G1/S (difference of NP-40 vs SDS log2 ratios) (log2 ratio difference); higher = more soluble in mitosis
HeLa Kyoto [4] = assay: thermal stability score vs G1/S (z-score of summed log2 fold changes over temperatures); higher = more thermally stable than in G1/S
[5] = cell cycle stage: early G1 (4.5 h after nocodazole release)
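For melting temperature (median over replicates), in situ in this document: HeLa Kyoto cells synchronized by double thymidine or nocodazole block, proteins quantified by TMT10plex mass spectrometry, three independent biological replicates.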
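For solubility change mitosis vs G1/S (difference of NP-40 vs SDS log2 ratios) in this document: synchronized HeLa Kyoto cells (double thymidine block for G1/S, nocodazole release for mitosis), protein amounts in NP-40 versus SDS lysates quantified by mass spectrometry, three biological replicates.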
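For solubility in G1/S (NP-40 vs SDS abundance) in this document: HeLa Kyoto cells arrested at G1/S by double thymidine block, proteins quantified by TMT10plex mass spectrometry in mild NP-40 versus SDS extracts, three biological replicates.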
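For thermal stability score vs G1/S (z-score of summed log2 fold changes over temperatures) in this document: synchronized HeLa Kyoto cells, proteins quantified by TMT10plex mass spectrometry, three biological replicates, mitosis taken 0.5 h after nocodazole release, G1/S directly after double thymidine block.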

ARFGAP2, sequence (chain, as listed by the source): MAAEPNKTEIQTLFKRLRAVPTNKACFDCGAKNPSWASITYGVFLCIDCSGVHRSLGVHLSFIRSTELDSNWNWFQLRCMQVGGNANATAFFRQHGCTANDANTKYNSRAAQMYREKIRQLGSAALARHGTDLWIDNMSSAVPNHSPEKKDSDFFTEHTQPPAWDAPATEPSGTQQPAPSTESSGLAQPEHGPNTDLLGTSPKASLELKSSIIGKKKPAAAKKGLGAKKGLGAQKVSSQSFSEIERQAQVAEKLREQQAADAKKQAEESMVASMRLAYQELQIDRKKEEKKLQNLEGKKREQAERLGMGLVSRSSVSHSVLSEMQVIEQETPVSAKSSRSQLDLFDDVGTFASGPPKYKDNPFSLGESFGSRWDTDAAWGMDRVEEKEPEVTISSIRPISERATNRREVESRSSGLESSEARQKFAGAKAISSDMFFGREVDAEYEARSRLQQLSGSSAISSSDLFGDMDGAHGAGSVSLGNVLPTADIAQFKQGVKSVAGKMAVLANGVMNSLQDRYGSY
RABGAP1, sequence (chain, as listed by the source): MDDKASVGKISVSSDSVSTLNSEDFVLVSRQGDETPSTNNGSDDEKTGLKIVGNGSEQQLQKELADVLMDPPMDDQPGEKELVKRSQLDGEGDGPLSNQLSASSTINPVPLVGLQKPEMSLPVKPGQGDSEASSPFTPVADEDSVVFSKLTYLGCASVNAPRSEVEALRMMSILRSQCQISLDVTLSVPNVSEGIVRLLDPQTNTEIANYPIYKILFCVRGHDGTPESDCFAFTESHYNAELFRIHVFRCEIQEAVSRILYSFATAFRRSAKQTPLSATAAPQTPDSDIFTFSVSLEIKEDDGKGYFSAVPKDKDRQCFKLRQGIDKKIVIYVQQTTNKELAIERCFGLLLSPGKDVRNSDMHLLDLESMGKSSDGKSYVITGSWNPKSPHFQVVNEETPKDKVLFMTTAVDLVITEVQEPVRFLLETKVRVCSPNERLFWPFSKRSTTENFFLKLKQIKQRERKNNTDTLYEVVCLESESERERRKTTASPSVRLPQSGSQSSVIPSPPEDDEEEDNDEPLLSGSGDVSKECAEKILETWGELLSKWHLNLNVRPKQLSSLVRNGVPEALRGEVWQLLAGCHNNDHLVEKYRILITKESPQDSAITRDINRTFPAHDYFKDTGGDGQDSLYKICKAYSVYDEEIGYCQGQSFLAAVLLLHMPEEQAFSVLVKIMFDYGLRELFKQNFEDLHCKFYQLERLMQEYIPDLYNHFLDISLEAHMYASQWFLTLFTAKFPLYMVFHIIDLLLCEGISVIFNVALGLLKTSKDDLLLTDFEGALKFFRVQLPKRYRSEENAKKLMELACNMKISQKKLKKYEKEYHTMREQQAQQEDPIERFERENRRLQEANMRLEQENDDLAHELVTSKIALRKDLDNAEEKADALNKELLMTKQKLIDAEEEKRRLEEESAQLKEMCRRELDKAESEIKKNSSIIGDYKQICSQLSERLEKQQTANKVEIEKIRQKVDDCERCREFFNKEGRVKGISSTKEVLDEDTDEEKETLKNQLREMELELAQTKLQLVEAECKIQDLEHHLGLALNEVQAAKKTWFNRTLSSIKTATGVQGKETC

| Substance | solubility in G1/S (log2) (HeLa Kyoto [1]) | melting temperature (HeLa Kyoto [2]; cell cycle stage: G1/S) | melting temperature (HeLa Kyoto [2]; cell cycle stage: mitosis) | solubility change mitosis (log2) (HeLa Kyoto [3]) | thermal stability score (HeLa Kyoto [4]; [5]) | thermal stability score (HeLa Kyoto [4]; cell cycle stage: mitosis) |
| --- | --- | --- | --- | --- | --- | --- |
| MHKHQHCCKCPECYEVTRLAALRRLEPPGYGDWQVPDPYGPGGGNGASAGYGGYSSQTLPSQAGATPTPRTKAKLIPTGRDVGPVPPKPVPGKSTPKLNGSGPSWWPECTCTNRDWYEQVNGSDGMFKYEEIVLERGNSGLGFSIAGGIDNPHVPDDPGIFITKIIPGGAAAMDGRLGVNDCVLRVNEVDVSEVVHSRAVEALKEAGPVVRLVVRRRQPPPETIMEVNLLKGPKGLGFSIAGGIGNQHIPGDNSIYITKIIEGGAAQKDGRLQIGDRLLAVNNTNLQDVRHEEAVASLKNTSDMVYLKVAKPGSLHLNDMYAPPDYASTFTALADNHISHNSSLGYLGAVESKVSYPAPPQVPPTRYSPIPRHMLAEEDFTREPRKIILHKGSTGLGFNIVGGEDGEGIFVSFILAGGPADLSGELRRGDRILSVNGVNLRNATHEQAAAALKRAGQSVTIVAQYRPEEYSRFESKIHDLREQMMNSSMSSGSGSLRTSEKRSLYVRALFDYDRTRDSCLPSQGLSFSYGDILHVINASDDEWWQARLVTPHGESEQIGVIPSKKRVEKKERARLKTVKFHARTGMIESNRDFPGLSDDYYGAKNLKGQEDAILSYEPVTRQEIHYARPVIILGPMKDRVNDDLISEFPHKFGSCVPHTTRPRRDNEVDGQDYHFVVSREQMEKDIQDNKFIEAGQFNDNLYGTSIQSVRAVAERGKHCILDVSGNAIKRLQQAQLYPIAIFIKPKSIEALMEMNRRQTYEQANKIYDKAMKLEQEFGEYFTAIVQGDSLEEIYNKIKQIIEDQSGHYIWVPSPEKL [DLG3] | 0.141 | 52.9 °C | 53.1 °C | -0.139 | -0.454 | -1.05 |
| MAALYRPGLRLNWHGLSPLGWPSCRSIQTLRVLSGDLGQLPTGIRDFVEHSARLCQPEGIHICDGTEAENTATLTLLEQQGLIRKLPKYNNCWLARTDPKDVARVESKTVIVTPSQRDTVPLPPGGARGQLGNWMSPADFQRAVDERFPGCMQGRTMYVLPFSMGPVGSPLSRIGVQLTDSAYVVASMRIMTRLGTPVLQALGDGDFVKCLHSVGQPLTGQGEPVSQWPCNPEKTLIGHVPDQREIISFGSGYGGNSLLGKKCFALRIASRLARDEGWLAEHMLILGITSPAGKKRYVAAAFPSACGKTNLAMMRPALPGWKVECVGDDIAWMRFDSEGRLRAINPENGFFGVAPGTSATTNPNAMATIQSNTIFTNVAETSDGGVYWEGIDQPLPPGVTVTSWLGKPWKPGDKEPCAHPNSRFCAPARQCPIMDPAWEAPEGVPIDAIIFGGRRPKGVPLVYEAFNWRHGVFVGSAMRSESTAAAEHKGKIIMHDPFAMRPFFGYNFGHYLEHWLSMEGRKGAQLPRIFHVNWFRRDEAGHFLWPGFGENARVLDWICRRLEGEDSARETPIGLVPKEGALDLSGLRAIDTTQLFSLPKDFWEQEVRDIRSYLTEQVNQDLPKEVLAELEALERRVHKM [PCK2] | 0.00231 | 52.8 °C | 52.1 °C | -0.0852 | -2.32 | -1.91 |
| MALSDEPAAGGPEEEAEDETLAFGAALEAFGESAETRALLGRLREVHGGGAEREVALERFRVIMDKYQEQPHLLDPHLEWMMNLLLDIVQDQTSPASLVHLAFKFLYIITKVRGYKTFLRLFPHEVADVEPVLDLVTIQNPKDHEAWETRYMLLLWLSVTCLIPFDFSRLDGNLLTQPGQARMSIMDRILQIAESYLIVSDKARDAAAVLVSRFITRPDVKQSKMAEFLDWSLCNLARSSFQTMQGVITMDGTLQALAQIFKHGKREDCLPYAATVLRCLDGCRLPESNQTLLRKLGVKLVQRLGLTFLKPKVAAWRYQRGCRSLAANLQLLTQGQSEQKPLILTEDDDEDDDVPEGVERVIEQLLVGLKDKDTVVRWSAAKGIGRMAGRLPRALADDVVGSVLDCFSFQETDKAWHGGCLALAELGRRGLLLPSRLVDVVAVILKALTYDEKRGACSVGTNVRDAACYVCWAFARAYEPQELKPFVTAISSALVIAAVFDRDINCRRAASAAFQENVGRQGTFPHGIDILTTADYFAVGNRSNCFLVISVFIAGFPEYTQPMIDHLVTMKISHWDGVIRELAARALHNLAQQAPEFSATQVFPRLLSMTLSPDLHMRHGSILACAEVAYALYKLAAQENRPVTDHLDEQAVQGLKQIHQQLYDRQLYRGLGGQLMRQAVCVLIEKLSLSKMPFRGDTVIDGWQWLINDTLRHLHLISSHSRQQMKDAAVSALAALCSEYYMKEPGEADPAIQEELITQYLAELRNPEEMTRCGFSLALGALPGFLLKGRLQQVLTGLRAVTHTSPEDVSFAESRRDGLKAIARICQTVGVKAGAPDEAVCGENVSQIYCALLGCMDDYTTDSRGDVGTWVRKAAMTSLMDLTLLLARSQPELIEAHTCERIMCCVAQQASEKIDRFRAHAASVFLTLLHFDSPPIPHVPHRGELEKLFPRSDVASVNWSAPSQAFPRITQLLGLPTYRYHVLLGLVVSLGGLTESTIRHSTQSLFEYMKGIQSDPQALGSFSGTLLQIFEDNLLNERVSVPLLKTLDHVLTHGCFDIFTTEEDHPFAVKLLALCKKEIKNSKDIQKLLSGIAVFCEMVQFPGDVRRQALLQLCLLLCHRFPLIRKTTASQVYETLLTYSDVVGADVLDEVVTVLSDTAWDAELAVVREQRNRLCDLLGVPRPQLVPQPGAC [TBCD] | -0.194 | 50 °C | 50.2 °C | -0.154 | -0.177 | 0.431 |
| MKLIILEHYSQASEWAAKYIRNRIIQFNPGPEKYFTLGLPTGSTPLGCYKKLIEYYKNGDLSFKYVKTFNMDEYVGLPRDHPESYHSFMWNNFFKHIDIHPENTHILDGNAVDLQAECDAFEEKIKAAGGIELFVGGIGPDGHIAFNEPGSSLVSRTRVKTLAMDTILANARFFDGELTKVPTMALTVGVGTVMDAREVMILITGAHKAFALYKAIEEGVNHMWTVSAFQQHPRTVFVCDEDATLELKVKTVKYFKGLMLVHNKLVDPLYSIKEKETEKSQSSKKPYSD [GNPDA1] | 0.183 | 61.5 °C | 62.9 °C | -0.206 | -0.841 | -0.7 |
| MNNSLENTISFEEYIRVKARSVPQHRMKEFLDSLASKGPEALQEFQQTATTTMVYQQGGNCIYTDSTEVAGSLLELACPVTTSVQPQTQQEQQIQVQQPQQVQVQVQVQQSPQQVSAQLSPQLTVHQPTEQPIQVQVQIQGQAPQSAAPSIQTPSLQSPSPSQLQAAQIQVQHVQAAQQIQAAEIPEEHIPHQQIQAQLVAGQSLAGGQQIQIQTVGALSPPPSQQGSPREGERRVGTASVLQPVKKRKVDMPITVSYAISGQPVATVLAIPQGQQQSYVSLRPDLLTVDSAHLYSATGTITSPTGETWTIPVYSAQPRGDPQQQSITHIAIPQEAYNAVHVSGSPTALAAVKLEDDKEKMVGTTSVVKNSHEEVVQTLANSLFPAQFMNGNIHIPVAVQAVAGTYQNTAQTVHIWDPQQQPQQQTPQEQTPPPQQQQQQLQVTCSAQTVQVAEVEPQSQPQPSPELLLPNSLKPEEGLEVWKNWAQTKNAELEKDAQNRLAPIGRRQLLRFQEDLISSAVAELNYGLCLMTREARNGEGEPYDPDVLYYIFLCIQKYLFENGRVDDIFSDLYYVRFTEWLHEVLKDVQPRVTPLGYVLPSHVTEEMLWECKQLGAHSPSTLLTTLMFFNTKYFLLKTVDQHMKLAFSKVLRQTKKNPSNPKDKSTSIRYLKALGIHQTGQKVTDDMYAEQTENPENPLRCPIKLYDFYLFKCPQSVKGRNDTFYLTPEPVVAPNSPIWYSVQPISREQMGQMLTRILVIREIQEAIAVANASTMH [QRICH1] | 0.184 | 47 °C | 49.3 °C | -0.197 | 3.16 | 5.23 |
| MMIHGFQSSHRDFCFGPWKLTASKTHIMKSADVEKLADELHMPSLPEMMFGDNVLRIQHGSGFGIEFNATDALRCVNNYQGMLKVACAEEWQESRTEGEHSKEVIKPYDWTYTTDYKGTLLGESLKLKVVPTTDHIDTEKLKAREQIKFFEEVLLFEDELHDHGVSSLSVKIRVMPSSFFLLLRFFLRIDGVLIRMNDTRLYHEADKTYMLREYTSRESKISSLMHVPPSLFTEPNEISQYLPIKEAVCEKLIFPERIDPNPADSQKSTQVE [TIPRL] | 0.0228 | 50.8 °C | 51.3 °C | -0.0696 | -0.544 | -1.01 |
| MASADSRRVADGGGAGGTFQPYLDTLRQELQQTDPTLLSVVVAVLAVLLTLVFWKLIRSRRSSQRAVLLVGLCDSGKTLLFVRLLTGLYRDTQTSITDSCAVYRVNNNRGNSLTLIDLPGHESLRLQFLERFKSSARAIVFVVDSAAFQREVKDVAEFLYQVLIDSMGLKNTPSFLIACNKQDIAMAKSAKLIQQQLEKELNTLRVTRSAAPSTLDSSSTAPAQLGKKGKEFEFSQLPLKVEFLECSAKGGRGDVGSADIQDLEKWLAKIA [SRPRB] | 0.446 | 50.2 °C | 50 °C | -0.0359 | 3.56 | 5.21 |
| RABGAP1 | -0.122 | 50.9 °C | 50.5 °C | -0.111 | -0.113 | -0.37 |
| MTSRSTARPNGQPQASKICQFKLVLLGESAVGKSSLVLRFVKGQFHEYQESTIGAAFLTQSVCLDDTTVKFEIWDTAGQERYHSLAPMYYRGAQAAIVVYDITNQETFARAKTWVKELQRQASPSIVIALAGNKADLANKRMVEYEEAQAYADDNSLLFMETSAKTAMNVNDLFLAIAKKLPKSEPQNLGGAAGRSRGVDLHEQSQQNKSQCCSN [RAB5B] | 0.23 | 57.4 °C | 58.2 °C | -0.207 | -0.307 | -2.64 |
| ARFGAP2 | 0.205 | 49.6 °C | 49.4 °C | -0.11 | -0.318 | -0.233 |
| CAD | -0.137 | 50.6 °C | 50 °C | -0.146 | -0.499 | 0.0146 |
| MALKMVKGSIDRMFDKNLQDLVRGIRNHKEDEAKYISQCIDEIKQELKQDNIAVKANAVCKLTYLQMLGYDISWAAFNIIEVMSASKFTFKRIGYLAASQSFHEGTDVIMLTTNQIRKDLSSPSQYDTGVALTGLSCFVTPDLARDLANDIMTLMSHTKPYIRKKAVLIMYKVFLKYPESLRPAFPRLKEKLEDPDPGVQSAAVNVICELARRNPKNYLSLAPLFFKLMTSSTNNWVLIKIIKLFGALTPLEPRLGKKLIEPLTNLIHSTSAMSLLYECVNTVIAVLISLSSGMPNHSASIQLCVQKLRILIEDSDQNLKYLGLLAMSKILKTHPKSVQSHKDLILQCLDDKDESIRLRALDLLYGMVSKKNLMEIVKKLMTHVDKAEGTTYRDELLTKIIDICSQSNYQYITNFEWYISILVELTRLEGTRHGHLIAAQMLDVAIRVKAIRKFAVSQMSALLDSAHLLASSTQRNGICEVLYAAAWICGEFSEHLQEPHHTLEAMLRPRVTTLPGHIQAVYVQNVVKLYASILQQKEQAGEAEGAQAVTQLMVDRLPQFVQSADLEVQERASCILQLVKHIQKLQAKDVPVAEEVSALFAGELNPVAPKAQKKVPVPEGLDLDAWINEPLSDSESEDERPRAVFHEEEQRRPKHRPSEADEEELARRREARKQEQANNPFYIKSSPSPQKRYQDTPGVEHIPVVQIDLSVPLKVPGLPMSDQYVKLEEERRHRQKLEKDKRRKKRKEKEKKGKRRHSSLPTESDEDIAPAQQVDIVTEEMPENALPSDEDDKDPNDPYRALDIDLDKPLADSEKLPIQKHRNTETSKSPEKDVPMVEKKSKKPKKKEKKHKEKERDKEKKKEKEKKKSPKPKKKKHRKEKEERTKGKKKSKKQPPGSEEAAGEPVQNGAPEEEQLPPESSYSLLAENSYVKMTCDIRGSLQEDSQVTVAIVLENRSSSILKGMELSVLDSLNARMARPQGSSVHDGVPVPFQLPPGVSNEAQYVFTIQSIVMAQKLKGTLSFIAKNDEGATHEKLDFRLHFSCSSYLITTPCYSDAFAKLLESGDLSMSSIKVDGIRMSFQNLLAKICFHHHFSVVERVDSCASMYSRSIQGHHVCLLVKKGENSVSVDGKCSDSTLLSNLLEEMKATLAKC [AP3D1] | -0.378 | 50.8 °C | 50.6 °C | -0.178 | -1.02 | -1.46 |
